According to the supplement of paper PMC7125110:
± gives the standard error. Fewer inactive variants are shown than the library holds.

B1: glmS ribozyme (parent)
chain: AUAAAAGCGCCAGAACUACAGAAAUGUAGUUGACGAGGAGGAGGUUUAUCGAAUUUUCGGCGGAUGCCUCCAAA

Key:
Conditions in all cases: with glucosamine-6-phosphate
[1] = variants of: B1; experiment: self-cleavage kobs at 160 uM GlcN6P; higher = faster cleavage; RNA array
Outline: (§1)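 Tiles bearing barcoded ribozyme variants, transcribed in situ by E. coli RNA polymerase on sequenced MiSeq chips, were imaged over ~14 h at 37 °C using a hybridised Cy3 probe. Glucosamine-6-phosphate was supplied at 40 μM to 10 mM in HEPES/KCl/Mg(OAc)2 buffer. kobs came from one- or two-exponential decay fits to normalised per-tile medians, and weighted Michaelis–Menten fits then provided kcat and KM.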

[2] = variants of: B1; experiment: self-cleavage kobs at 2500 uM GlcN6P; higher = faster cleavage; RNA array
Outline: as §1

[3] = variants of: B1; experiment: self-cleavage kobs at 10000 uM GlcN6P; higher = faster cleavage; RNA array
Outline: as §1

[4] = variants of: B1; experiment: self-cleavage kobs at 640 uM GlcN6P; higher = faster cleavage; RNA array
Outline: as §1

Variant	self-cleavage kobs at 160 uM GlcN6P [1]	self-cleavage kobs at 2500 uM GlcN6P [2]	self-cleavage kobs at 10000 uM GlcN6P [3]	self-cleavage kobs at 640 uM GlcN6P [4]
G41U G63C	< 1e-05 s⁻¹	< 1e-05 s⁻¹	< 1e-05 s⁻¹	–
G43C U55A	< 1e-05 s⁻¹	–	–	< 1e-05 s⁻¹
G40A C50U	< 1e-05 s⁻¹	–	< 1e-05 s⁻¹	< 1e-05 s⁻¹
U46A C61G	< 1e-05 s⁻¹	< 1e-05 s⁻¹	–	< 1e-05 s⁻¹
G44U C61A C67U C70G	< 1e-05 s⁻¹	< 1e-05 s⁻¹	–	< 1e-05 s⁻¹
G41U U45C G59U	< 1e-05 s⁻¹	< 1e-05 s⁻¹	–	< 1e-05 s⁻¹
U46C C58U C67A	< 1e-05 s⁻¹	–	–	–
A39U U54C G62C	< 1e-05 s⁻¹	< 1e-05 s⁻¹	–	< 1e-05 s⁻¹
A39G U46G A53C	5.35e-05 ± 2.3e-05 s⁻¹	–	–	0.000315 ± 0.00012 s⁻¹
G38U G43U U65C	< 1e-05 s⁻¹	–	–	–
G41A C50G	< 1e-05 s⁻¹	< 1e-05 s⁻¹	< 1e-05 s⁻¹	< 1e-05 s⁻¹
C50G G51A	< 1e-05 s⁻¹	–	< 1e-05 s⁻¹	–
G44U U45G U69A	< 1e-05 s⁻¹	–	–	–
G38U G41C G59C	< 1e-05 s⁻¹	–	–	< 1e-05 s⁻¹
A42U U47C A52C	< 1e-05 s⁻¹	< 1e-05 s⁻¹	–	–
G41U G59A	< 1e-05 s⁻¹	< 1e-05 s⁻¹	–	< 1e-05 s⁻¹
G41A G51U	< 1e-05 s⁻¹	< 1e-05 s⁻¹	< 1e-05 s⁻¹	< 1e-05 s⁻¹
A42G C50G A64G	< 1e-05 s⁻¹	–	–	–
G43C U55A A64U	< 1e-05 s⁻¹	–	–	–
A39C G44U U46C G60U G63C C68A C71A	< 1e-05 s⁻¹	< 1e-05 s⁻¹	–	< 1e-05 s⁻¹
G41U C68U U69C	< 1e-05 s⁻¹	< 1e-05 s⁻¹	–	< 1e-05 s⁻¹
U45C U46C	0.000106 ± 3e-05 s⁻¹	0.00111 ± 0.00037 s⁻¹	–	0.000335 ± 5.7e-05 s⁻¹
A42C A53C	< 1e-05 s⁻¹	–	–	< 1e-05 s⁻¹
G40A U45C	4.64e-05 ± 1.6e-05 s⁻¹	0.000553 ± 0.00016 s⁻¹	–	–

Variant	self-cleavage kobs at 160 uM GlcN6P [1]	self-cleavage kobs at 2500 uM GlcN6P [2]	self-cleavage kobs at 10000 uM GlcN6P [3]	self-cleavage kobs at 640 uM GlcN6P [4]
A48G U49C G60A	< 1e-05 s⁻¹	< 1e-05 s⁻¹	–	< 1e-05 s⁻¹
U46A G51C A52G	< 1e-05 s⁻¹	< 1e-05 s⁻¹	–	< 1e-05 s⁻¹
G43C U55G U56G C67G	< 1e-05 s⁻¹	–	–	–
G41A U55G C71A	5.4e-05 ± 1.6e-05 s⁻¹	0.000196 ± 3.5e-05 s⁻¹	–	8.59e-05 ± 2.3e-05 s⁻¹
G40C U69A	< 1e-05 s⁻¹	< 1e-05 s⁻¹	–	–
G43A G60C	< 1e-05 s⁻¹	< 1e-05 s⁻¹	< 1e-05 s⁻¹	< 1e-05 s⁻¹
A42C G62C G63U U69A	< 1e-05 s⁻¹	< 1e-05 s⁻¹	–	–
C50U C70G	0.000293 ± 0.00013 s⁻¹	6.07e-05 ± 1.3e-05 s⁻¹	–	8.51e-05 ± 1.6e-05 s⁻¹
U49C G62U	< 1e-05 s⁻¹	< 1e-05 s⁻¹	< 1e-05 s⁻¹	< 1e-05 s⁻¹
U49C G62A	< 1e-05 s⁻¹	–	< 1e-05 s⁻¹	< 1e-05 s⁻¹
G44U C58A C71A	< 1e-05 s⁻¹	< 1e-05 s⁻¹	–	< 1e-05 s⁻¹
G44C A64U	< 1e-05 s⁻¹	< 1e-05 s⁻¹	–	–
A48U G51U	< 1e-05 s⁻¹	< 1e-05 s⁻¹	–	–
U47C G62C	< 1e-05 s⁻¹	< 1e-05 s⁻¹	< 1e-05 s⁻¹	< 1e-05 s⁻¹
G41U U69G	< 1e-05 s⁻¹	< 1e-05 s⁻¹	< 1e-05 s⁻¹	< 1e-05 s⁻¹
A39G A52U C61G A64C	< 1e-05 s⁻¹	< 1e-05 s⁻¹	–	< 1e-05 s⁻¹
U45G C61A	< 1e-05 s⁻¹	< 1e-05 s⁻¹	< 1e-05 s⁻¹	< 1e-05 s⁻¹
G43C C61U	< 1e-05 s⁻¹	< 1e-05 s⁻¹	< 1e-05 s⁻¹	< 1e-05 s⁻¹
G40U G43C C68G	0.000486 ± 0.00015 s⁻¹	0.00105 ± 0.00026 s⁻¹	–	0.000552 ± 0.00012 s⁻¹
G40C G44A A53C	< 1e-05 s⁻¹	< 1e-05 s⁻¹	–	< 1e-05 s⁻¹
A42C U47C	< 1e-05 s⁻¹	< 1e-05 s⁻¹	–	< 1e-05 s⁻¹
G41U G51A	< 1e-05 s⁻¹	< 1e-05 s⁻¹	< 1e-05 s⁻¹	< 1e-05 s⁻¹
U46G U55G G60C	< 1e-05 s⁻¹	< 1e-05 s⁻¹	–	–
G40A A48G C50G	< 1e-05 s⁻¹	< 1e-05 s⁻¹	–	–
